# Test results as given in US20250152746A1, “BASE EDITING OF ANGPTL3 AND METHODS OF USING SAME FOR TREATMENT OF DISEASE” (Verve Therapeutics, Inc., priority 2020, published 2025).
# Read-outs that look alike come from different tables or passages of the source.
# Legend:
# ANGPTL3 gene [1] = assay: ANGPTL3 gRNA/SpCas9 editing in primary human hepatocytes (Table 3); format: cell-based
# Description: (§1) In set of experiments, PCSK9 gRNAs were co-transfected with an equivalent amount (1:1 ratio by weight) of in vitro transcribed commercially available SpCas9 mRNA MS002 purchased from TriLink Biotechnologies into primary human hepatocytes at 2500, 500, or 100 ng/RNA/mL and processed as described in detailed methods. Extracted genomic DNA was analyzed for gene editing at the target site with next-generation sequencing of PCR amplicons generated around the target sites. Samples were prepared using the Nextera XT DNA library preparation kit (Illumina) according to the manufacturer's protocol. Briefly, two rounds of PCR were performed first to amplify the region of interest and second to add DNA sequences required for next generation sequencing and sample identification to the initial product. The final amplicon was sequenced on the Illumina MiSeq instrument according to the manufacturer's protocol. A wide range of editing activities (Table 2) were observed. In a second set of experiments, ANGPTL3 gRNAs were co-transfected with an equivalent amount of in vitro transcribed SpCas9 mRNA (1:1 ratio by weight) into primary human hepatocytes and processed and analyzed similarly (Table 3).
# (§2) Plating, culturing, and transfection of primary hepatocytes. Primary human liver hepatocytes (PHH) and primary cynomolgus liver hepatocytes (PCH) from BioIVT were cultured per the manufacturer's protocol. Briefly, primary human hepatocytes and primary cyno hepatocytes were obtained as frozen aliquots from BioIVT. Four lots of primary human hepatocytes, each derived from a de-identified individual donor, were used for the experiments: STL (main donor) was used for all experiments, including screening experiments and off-target experiments; HLY, JLP, and TLY were used for off-target experiments. The HFG lot of primary cyno hepatocytes were used for experiments. Following the manufacturer's instructions, cells were thawed and rinsed prior to plating in 24-well plates that had been coated with bovine collagen overnight, with a density of approximate 350,000 cells/well in INVITROGRO hepatocyte medium supplemented with TORPEDO antibiotic mix (BioIVT). The cells were thawed and resuspended in hepatocyte thawing medium followed by centrifugation at 100 g for 10 min at 4° C. The supernatant was discarded, and the pelleted cells resuspended in hepatocyte plating medium. Each vial contains approximately 5 million cells that were used for plating one 24-well plate. Plated cells were allowed to settle and adhere for 4-6 h in a tissue culture incubator at 37° C. under 5% CO2 atmosphere. After incubation, cells were checked for monolayer formation. The incubating media were then replaced with fresh hepatocyte maintenance media (complete INVITROGRO medium obtained from BioIVT, the cell line provider). The cells thus became ready for transfection. Each of the gRNAs were co-transfected with an equivalent amount of in vitro transcribed ABE8.8 mRNA (1:1 ratio by molecular weight) into primary human hepatocytes via MessengerMax reagent (Lipofectamine), using various dilutions to assess for editing activity at different concentrations of test article. MessengerMAX from Thermo Fisher is used for transfection. Solution A: desired amount of guide RNA is mixed with 1:1 wt ratio of mRNA in OptiMEM. Solution B: MessengerMAX in OptiMEM. After mixing solutions A and B, the mixture was incubated at room temperature for 20 min. 60 μL of the incubated solution was added dropwise to each cell wells. For protospacer sequences that were a perfect match to the corresponding cynomolgous monkey PCSK9 or ANGPTL3 gene sequence, each gRNA was also co-transfected with an equivalent amount of ABE8.8 mRNA (1:1 ratio by molecular weight) into primary cynomolgous hepatocytes, and followed the same transfection protocol. The cells were then allowed to remain at 37° C. for 3 days. […]
# ANGPTL3 gene [2] = assay: ANGPTL3 gRNA/SpCas9 editing in primary cynomolgus hepatocytes (Table 3); format: cell-based, cynomolgus monkey
# Description: as §1, §2
Molecule,Human Primary Hepatocyte Editing % 100 ng/ml (ANGPTL3 gene [1]),Human Primary Hepatocyte Editing % 500 ng/mL (ANGPTL3 gene [1]),Cyno Primary Hepatocyte Editing % 100 ng/mL (ANGPTL3 gene [2]),Cyno Primary Hepatocyte Editing % 500 ng/ml (ANGPTL3 gene [2]),"Human Primary Hepatocyte Editing % 100 ng/ml (ANGPTL3 gene [1]; 100 ng/ml, SpCas9 mRNA 1:1 by weight)","Human Primary Hepatocyte Editing % 500 ng/mL (ANGPTL3 gene [1]; 500 ng/mL, SpCas9 mRNA 1:1 by weight)","Cyno Primary Hepatocyte Editing % 100 ng/mL (ANGPTL3 gene [2]; 100 ng/mL, SpCas9 mRNA 1:1 by weight)","Cyno Primary Hepatocyte Editing % 500 ng/ml (ANGPTL3 gene [2]; 500 ng/ml, SpCas9 mRNA 1:1 by weight)"
"GA148: ANGPTL3 gRNA; protospacer ACAAAACTTCAATGAAACGT (SEQ ID NO: 146) (nucleic acid, 2'-O-methyl at 1, 2, other sugars and backbone not given here; further chemistry not fully specified) guide: ACAAAACTTCAATGAAACGTGTTTTAGAGCTAGAAATAGCAAGTTAAAATAAGGCTAGTCCGTTATCAACTTGAAAAAGTGGCACCGAGTCGGTGCTTTT",12.01%,31.67%,28.57%,69.75%,–,–,–,–
"GA145: ANGPTL3 gRNA; protospacer CATTATATTCAGGTAGTCCA (SEQ ID NO: 143) (nucleic acid, 2'-O-methyl at 1, 2, other sugars and backbone not given here; further chemistry not fully specified) guide: CATTATATTCAGGTAGTCCAGTTTTAGAGCTAGAAATAGCAAGTTAAAATAAGGCTAGTCCGTTATCAACTTGAAAAAGTGGCACCGAGTCGGTGCTTTT",12.55%,26.33%,18.77%,30.34%,–,–,–,–
"GA151: ANGPTL3 gRNA; protospacer GAGAACTACAAATATGGTTT (SEQ ID NO: 149) (nucleic acid, 2'-O-methyl at 1, 2, other sugars and backbone not given here; further chemistry not fully specified) guide: GAGAACTACAAATATGGTTTGTTTTAGAGCTAGAAATAGCAAGTTAAAATAAGGCTAGTCCGTTATCAACTTGAAAAAGTGGCACCGAGTCGGTGCTTTT",10.56%,31.88%,11.32%,38.91%,–,–,–,–
"GA143: ANGPTL3 gRNA; protospacer TTAATTCAACATCGAATAGA (SEQ ID NO: 141) (nucleic acid, 2'-O-methyl at 1, 2, other sugars, backbone and T or U not given here; further chemistry not fully specified) guide: UUAATTCAACATCGAATAGAGTTTTAGAGCTAGAAATAGCAAGTTAAAATAAGGCTAGTCCGTTATCAACTTGAAAAAGTGGCACCGAGTCGGTGCTTTT",9.30%,19.36%,14.84%,21.16%,–,–,–,–
"GA107: ANGPTL3 gRNA; protospacer AGCCAATGGCCTCCTTCAGT (SEQ ID NO: 105) (nucleic acid, 2'-O-methyl at 1, 2, other sugars and backbone not given here; further chemistry not fully specified) guide: AGCCAATGGCCTCCTTCAGTGTTTTAGAGCTAGAAATAGCAAGTTAAAATAAGGCTAGTCCGTTATCAACTTGAAAAAGTGGCACCGAGTCGGTGCTTTT",3.72%,5.09%,32.58%,–,–,–,–,–
"GA142: ANGPTL3 gRNA; protospacer TGAAAAACTTGAGAGTTGCT (SEQ ID NO: 140) (nucleic acid, 2'-O-methyl at 1, 2, other sugars, backbone and T or U not given here; further chemistry not fully specified) guide: UGAAAAACTTGAGAGTTGCTGTTTTAGAGCTAGAAATAGCAAGTTAAAATAAGGCTAGTCCGTTATCAACTTGAAAAAGTGGCACCGAGTCGGTGCTTTT",–,–,–,–,10.50%,24.90%,20.09%,27.59%
